This is an account of results in PMC10206189, “Nanobody inhibitors of Plexin-B1 identify allostery in plexin–semaphorin interactions and signaling” (The Journal of Biological Chemistry, 2023).

Read-outs that look alike come from different tables or passages of the source.

To fix the notation:
B1: mouse Plexin-B1 (20–535)-6xHis (domain or fragment, UniProt Q8CJH3 20-535, looked up)
chain: LRSPLPAAFTANGTHLQHLARDPTTGTLYVGATNFLFQLSPGLQLEAVVSTGPVNDSRDCLPPVIPDECPQAQPTNNPNQLLLVSPEALVVCGSVHQGICELRSLGQIRQLLLRPERPGDTQYVAANDPAVSTVGLVAQGLVGEPLLFVGRGYTSRGVGGGIPPITTRALRPPDPQAAFSYEETAKLAVGRLSEYSHHFVSAFVRGASAYFLFLRRDLKAPSRAFRAYVSRVCLQDQHYYSYVELPLACQGGRYGLIQAAAVATSKEVARGDVLFAAFSSVAPPTVDWPLSASTGASGTSVLCAFPLDEVDQLANYTRDACYTREGRAENGTKVADIAYDVLSDCAQLPVDTPDAFPCGSDHTPSPMVSCVPLEATPILELPGVQLTAVAVTMEDGHTIAFLGDSQGQLHRVYLGPGRSAAPYSKQSIQPGSPVNRDLTFDGTFEHLYVATQTTLVKVPVAPCAQHLDCDSCLAHRDPYCGWCVLLGRCSRRSECSRDQGPEQWLWSFQPELGCLR
notes: mouse Plexin-B1, sema and PSI1 domains (D1-2); For crystallography the N-linked glycans were trimmed to a single N-acetylglucosamine with EndoH; also called mPlexin-B1; mouse Plexin-B1 domains 1 and 2; source: Expi293F, secreted, purified (Excel HisTrap, Superdex 200)
B2: biotinylated mouse Plexin-B1 (20–535)-Avi-6xHis (domain or fragment, UniProt Q8CJH3 20-535, looked up)
chain: B1 chain
modifications: biotin on the Avi-tag (BirA, in vitro)
notes: the Avi-tag stands between the C terminus of the fragment and the 6xHis-tag; source: Expi293F, secreted, purified as the unmodified version; biotinylated in vitro with BirA
B3: biotinylated mouse Plexin-B1 (20–535)-Avi-6xHis (domain or fragment, UniProt Q8CJH3 20-535, looked up)
chain: B1 chain
modifications: biotin on the Avi-tag (BirA, in vitro)
notes: as for B2
B4: VHH17 (VHH)
VHH: QVQLQESGGGLVQAGGSLRLSCVAAGIPFSAYAMSWYRQAPGKQRDHIATVSSGGTTYYADSVKGRFTISRDNAKNTVYLQMNSLKPEDTAVYFCNTEFALGNWGQGTQVTVSA
B5: VHH16 (VHH)
VHH: QVQLQESGGDLVQAGGSLRLSCEVSGSSFDIYHWAWYRQVPGKEREWVATAYSAGTTHYADSVKGRFTISRDNAKNTVYLQMNSLIPEDTAVYFCNANIYWGRGTQVTVSA
B6: VHH14-6xHis (VHH)
VHH: QVQLQESGGGLVQAGGSLRLSCAASGFTLGYYAIGWFRQAPGKEREEVSCINASGGSTFYEDSVKGRFTISRDNAKNTVFLQMNRLKPEDTAVYYCAAACEVVAVGYWGQGTQVTVSA
notes: VHH14
B7: VHH13 (VHH)
VHH: QVQLQESGGGLVQAGGSLRLSCVASGFTFSSYAMGWYRRTPGNQQQLVATVSSSGTTYYGDSVKGRFTISRDNAKKTVYLQMNSLKPEDTAVYYCWRIGYWGQGTQVTVSA
B8: human Plexin-B1 (20–535) (domain or fragment, UniProt O43157 20-535, looked up)
chain: LQPLPPTAFTPNGTYLQHLARDPTSGTLYLGATNFLFQLSPGLQLEATVSTGPVLDSRDCLPPVMPDECPQAQPTNNPNQLLLVSPGALVVCGSVHQGVCEQRRLGQLEQLLLRPERPGDTQYVAANDPAVSTVGLVAQGLAGEPLLFVGRGYTSRGVGGGIPPITTRALWPPDPQAAFSYEETAKLAVGRLSEYSHHFVSAFARGASAYFLFLRRDLQAQSRAFRAYVSRVCLRDQHYYSYVELPLACEGGRYGLIQAAAVATSREVAHGEVLFAAFSSAAPPTVGRPPSAAAGASGASALCAFPLDEVDRLANRTRDACYTREGRAEDGTEVAYIEYDVNSDCAQLPVDTLDAYPCGSDHTPSPMASRVPLEATPILEWPGIQLTAVAVTMEDGHTIAFLGDSQGQLHRVYLGPGSDGHPYSTQSIQQGSAVSRDLTFDGTFEHLYVMTQSTLLKVPVASCAQHLDCASCLAHRDPYCGWCVLLGRCSRRSECSRGQGPEQWLWSFQPELGCLQ
notes: human Plexin-B1, sema and PSI1 domains; also called hPlexin-B1; source: Expi293F, secreted, purified (Excel HisTrap, Superdex 200)
B9: VHH15-6xHis (VHH)
VHH: QVQLQESGGGLVQPGGSLRLSCAASGFRLDYYAIGWFRQAPGKEREGVLCISSSGGSINYADSVKGRFTISRDNAKNTVYLQMNSLKPEDTAVYYCGASSYNTQRAECYGMDYWGKGTQVTVSA
notes: VHH15; not shown: His6, C-terminal, kept

The target in assay [1] is T1, VHH15-Fc (huarizo).
T1 construct: VHH cloned upstream of the Fc of human IgG1 (vector pHCMVi-Script HuIgG1 Fc); source: Expi293F, transfected; culture supernatant, and purified (HiTrap MabSelect, Superdex 200); not shown: Fc (human IgG1), C-terminal, kept
The assay can be described thus: BLI; Octet RED384, 25 °C, 1× Kinetics buffer; purified VHH-Fc captured on Protein G biosensors, mouse Plexin-B1 in solution (VHH14-Fc: 10-3.75 nM, 1800 s association, 7200 s dissociation; VHH15-Fc: 160-10 nM, 600 s, 510 s); global 1:1 fit. The conditions noted are these: both partners purified. A general note: Biolayer interferometry detects binding as a change in optical thickness at a sensor tip.

Assay [2] addresses T2, VHH14-Fc (huarizo).
T2 construct: VHH cloned upstream of the Fc of human IgG1 (vector pHCMVi-Script HuIgG1 Fc); source: Expi293F, transfected; culture supernatant, and purified (HiTrap MabSelect, Superdex 200); not shown: Fc (human IgG1), C-terminal, kept
The assay can be described thus: BLI; first phase of the competition assay: 100 nM VHH-Fc on biotinylated murine Plexin-B1 held on streptavidin biosensors; by the order of the results the VHH-Fcs were still in supernatants. The conditions noted are these: one partner purified.

Assay [3] deals with T1, VHH15-Fc. Described as above. The conditions noted are these: one partner purified.
Assay [4] deals with T3, Recombinant Sema4D (1–677) with C-terminal 6xHis-tag (human, UniProt Q92854 22-677).
T3 construct: signal peptide in the construct; human Sema4D, residues 1-677 cloned in pcDNA5 and expressed as a secreted protein; also called human Sema4D; source: Expi293F, purified as the Plexin-B1 constructs (Excel HisTrap, Superdex 200)
T3 sequence (looked up): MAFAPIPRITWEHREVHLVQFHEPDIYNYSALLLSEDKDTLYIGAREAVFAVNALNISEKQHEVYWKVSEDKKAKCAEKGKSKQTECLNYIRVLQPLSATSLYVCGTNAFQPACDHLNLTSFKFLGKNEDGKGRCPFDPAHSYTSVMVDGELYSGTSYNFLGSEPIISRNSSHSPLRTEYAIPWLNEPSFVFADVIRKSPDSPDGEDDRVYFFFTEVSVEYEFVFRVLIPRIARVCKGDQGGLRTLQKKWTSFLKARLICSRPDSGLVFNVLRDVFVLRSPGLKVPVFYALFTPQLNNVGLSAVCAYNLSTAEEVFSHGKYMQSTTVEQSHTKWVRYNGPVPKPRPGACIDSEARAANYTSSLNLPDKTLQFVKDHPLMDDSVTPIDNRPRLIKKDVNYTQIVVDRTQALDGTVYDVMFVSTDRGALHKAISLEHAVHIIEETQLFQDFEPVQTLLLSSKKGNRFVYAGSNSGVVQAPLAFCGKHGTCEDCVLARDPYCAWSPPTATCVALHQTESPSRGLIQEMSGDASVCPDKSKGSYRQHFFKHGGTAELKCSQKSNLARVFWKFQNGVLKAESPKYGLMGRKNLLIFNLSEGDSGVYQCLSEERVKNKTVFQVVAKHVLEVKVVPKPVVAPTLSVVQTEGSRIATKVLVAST
The assay can be described thus: BLI; competition assay, Octet RED384, 1× Kinetics buffer; biotinylated murine Plexin-B1 on streptavidin biosensors, 10 μg/ml human Sema4D with or without 100 nM VHH-Fc bound beforehand. Particulars: both partners purified.

The target in assay [5] is B1.
The target of assay [6] is B1. The assay can be described thus: crystal structure; VHH14:VHH15:mPlexin-B1 ternary complex; 15% PEG 6000, 0.1 M sodium citrate pH 5.5, 3% dextran sulphate, 18 °C. Particulars: both partners purified.
In assay [7] the target is T2, VHH14-Fc. The assay can be described thus: BLI; supernatants containing VHH-Fcs tested against mouse and human Plexin-B1. Particulars: one partner purified.
The target of assay [8] is T1, VHH15-Fc. Described as above. The conditions noted are these: one partner purified.
The target in assay [9] is B1. The assay can be described thus: crystal structure; VHH15:mPlexin-B1 complex, EndoH-treated; 8% PEG 8000, 0.1 M sodium citrate pH 5.0, 1% dextran sulphate, 18 °C. Particulars: both partners purified.

What is called Kd is the concentration at which binding is half-saturated. In the assay with VHH15-Fc [1], B1 gave a Kd of 37.5 nM.
Take B2: the binding result in the assay with VHH14-Fc [2] and with VHH15-Fc [3] was “binds” each time.
As to B3, the binding result in [4] was “binds”.
In the case of B4, the binding result in [5] is on record as “binds”.
The same measure, in the same setting: for B5 the value was “binds”.
Turning to B6, the binding result in assay [6] is given as “binds”.
For the molecule B7, the binding result in [5] is reported as “binds”.
With B8, the binding result with VHH14-Fc [7] and with VHH15-Fc [8] was “no binding” each time.
Take B9: the binding result in [9] is listed as “binds”.
